Tests used:
[1] = test system: Int22 (Integrase 1207); test: cell_activity; conditions: ~500 bp region template
[2] = test system: Int182 (Integrase 1227); test: cell_activity; conditions: ~500 bp region template
[3] = test system: Int30 (Integrase 436); test: cell_activity; conditions: ~500 bp region template
[4] = molecular target: T1, Int94 (Integrase 1219) (UniProt A7GVM1); test: cell_activity; conditions: ~500 bp region template
T1 sequence: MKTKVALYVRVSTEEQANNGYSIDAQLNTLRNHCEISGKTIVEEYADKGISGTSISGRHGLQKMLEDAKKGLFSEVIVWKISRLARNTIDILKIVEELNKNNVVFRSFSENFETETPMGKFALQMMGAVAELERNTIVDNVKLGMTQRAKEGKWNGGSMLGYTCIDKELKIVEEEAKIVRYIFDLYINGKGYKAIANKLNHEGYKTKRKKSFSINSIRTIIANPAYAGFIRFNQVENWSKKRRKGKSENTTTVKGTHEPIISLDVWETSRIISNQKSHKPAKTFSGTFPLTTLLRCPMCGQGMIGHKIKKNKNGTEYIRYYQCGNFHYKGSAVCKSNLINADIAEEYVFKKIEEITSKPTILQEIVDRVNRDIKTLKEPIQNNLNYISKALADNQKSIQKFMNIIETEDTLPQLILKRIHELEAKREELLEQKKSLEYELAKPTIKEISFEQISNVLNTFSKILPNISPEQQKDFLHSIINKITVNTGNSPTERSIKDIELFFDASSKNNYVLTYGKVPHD

[5] = test system: Int106 (Integrase 1223); test: cell_activity; conditions: ~500 bp region template
[6] = test system: Int17 (Integrase 1206); test: cell_activity; conditions: ~500 bp region template
[7] = test system: Int171 (Integrase 450); test: cell_activity; conditions: ~500 bp region template
[8] = test system: Int138 (Integrase 1116); test: cell_activity; conditions: HEK293T, template with ~500 bp region containing attP; attP from Table 2
[9] = test system: Int29/Int105 (Integrase 477); test: cell_activity; conditions: Int29; same accession as Int105 gave 0.77
[10] = test system: Int104 (Integrase 1222); test: cell_activity; conditions: ~500 bp region template
[11] = molecular target: T2, Int60 (Integrase 27) (UniProt Q858X3 Q858X3:1-594); test: cell_activity; ~500 bp region template
T2 sequence: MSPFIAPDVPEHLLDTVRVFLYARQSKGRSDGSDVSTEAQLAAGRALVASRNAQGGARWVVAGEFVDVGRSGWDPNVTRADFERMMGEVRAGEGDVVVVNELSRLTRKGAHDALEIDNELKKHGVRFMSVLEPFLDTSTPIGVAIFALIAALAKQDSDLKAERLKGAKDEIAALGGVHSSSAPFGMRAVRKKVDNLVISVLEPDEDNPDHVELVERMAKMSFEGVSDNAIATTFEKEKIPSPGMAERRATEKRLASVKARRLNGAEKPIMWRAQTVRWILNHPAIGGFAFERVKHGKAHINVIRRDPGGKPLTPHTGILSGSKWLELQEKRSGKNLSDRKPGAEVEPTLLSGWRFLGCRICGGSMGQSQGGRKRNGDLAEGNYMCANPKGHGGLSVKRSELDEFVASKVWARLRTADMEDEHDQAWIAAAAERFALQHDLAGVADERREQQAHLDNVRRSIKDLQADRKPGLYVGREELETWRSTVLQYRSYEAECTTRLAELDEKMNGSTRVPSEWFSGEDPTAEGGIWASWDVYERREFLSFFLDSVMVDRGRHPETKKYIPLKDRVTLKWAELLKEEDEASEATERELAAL

[12] = molecular target: T3, Int192 (Integrase 165) (UniProt C9DC17 C9DC17:1-507); test: cell_activity; ~500 bp region template
T3 sequence: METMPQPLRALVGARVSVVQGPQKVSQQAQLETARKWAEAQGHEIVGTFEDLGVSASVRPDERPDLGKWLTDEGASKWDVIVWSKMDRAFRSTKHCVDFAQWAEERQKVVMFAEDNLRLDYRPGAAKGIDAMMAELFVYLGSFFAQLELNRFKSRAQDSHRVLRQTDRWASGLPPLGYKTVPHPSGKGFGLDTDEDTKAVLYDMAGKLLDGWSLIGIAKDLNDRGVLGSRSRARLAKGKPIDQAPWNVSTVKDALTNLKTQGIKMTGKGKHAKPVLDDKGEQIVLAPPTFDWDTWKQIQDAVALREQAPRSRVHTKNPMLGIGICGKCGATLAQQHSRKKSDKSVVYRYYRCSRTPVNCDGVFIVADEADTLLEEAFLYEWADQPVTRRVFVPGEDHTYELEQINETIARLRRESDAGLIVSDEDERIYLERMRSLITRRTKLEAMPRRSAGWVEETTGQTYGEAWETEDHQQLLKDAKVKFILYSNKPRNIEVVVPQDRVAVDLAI

[13] = molecular target: T4, Int103 (Integrase 1221) (UniProt Q928V6 Q928V6:1-452); test: cell_activity; ~500 bp region template
T4 sequence: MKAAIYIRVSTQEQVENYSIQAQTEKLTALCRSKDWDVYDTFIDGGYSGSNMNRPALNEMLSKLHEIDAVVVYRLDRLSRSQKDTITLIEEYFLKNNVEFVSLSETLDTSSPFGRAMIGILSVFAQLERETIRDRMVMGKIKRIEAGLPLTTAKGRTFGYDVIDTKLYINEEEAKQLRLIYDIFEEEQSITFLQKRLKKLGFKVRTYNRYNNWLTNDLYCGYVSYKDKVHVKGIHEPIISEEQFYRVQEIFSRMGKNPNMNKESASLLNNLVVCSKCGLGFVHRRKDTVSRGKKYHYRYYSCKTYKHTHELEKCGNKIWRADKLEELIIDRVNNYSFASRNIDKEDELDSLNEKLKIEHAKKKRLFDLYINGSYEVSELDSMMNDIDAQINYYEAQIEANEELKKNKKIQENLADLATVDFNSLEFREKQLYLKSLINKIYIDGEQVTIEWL

Molecule: AAAAGAATCCAAATTATCGTACTTTAACATAGTGAATACTGTCCATCATGTATAAAAGTACG (double strand) [1207 attP]
- activity [1]: 0.16 % GFP+

Molecule: AAATATAACCTGTGTATTGAAACAAGGTGCTGATAAAACCCTTTCATAAACACAAGTAAATA (double strand) [1227 attP]
- activity [2]: 0.22 % GFP+

Molecule: ATTTTAGGTATATGATTTTGTTTATTAGTGTAAATAACACTATGTACCTAAAAT (double strand) [436 attP]
- activity [3]: 10.1 % GFP+

Molecule: CAATAACGGTTGTATTTGTAGAACTTGACCAGTTGTTTTAGTAACATAAATACAACTCCGAATA (double strand) [1219 attP]
- activity [4]: 0.23 % GFP+

Molecule: CAATGAAAAACTAGGCATGTAGAAGTTGTTTGT (double strand) [1223 attP]
- activity [5]: 1.77 % GFP+

Molecule: GTTAGGTGTATATCATACCTAACGCAATTCATTACATCACATATGTTATACACCTACTTTAA (double strand) [1206 attP]
- activity [6]: 0.123 % GFP+

Molecule: TATTAGTATAGAAGAAAGCTCTCAGCACACGTGGAGTGTGTTGCTCTCTGCTCGTAAAGCCT (double strand) [450 attP]
- activity [7]: 0.16 % GFP+

Molecule: TGTAGTAAGTATCTTAATATACAGCTTTATCTGTTTTTTAAGATACTTACTACTTT (double strand) [1116 attP]
- activity [8]: 27.6 % GFP+

Molecule: TTCCTCGTTTTCTCTCGTTGGAAGAAGAAGAAACGAGAAA (double strand) [477 attP]
- activity [9]: 0.91 % GFP+

Molecule: TTCCTCGTTTTCTCTCGTTGGACGGAAACGAATCGAGAAA (double strand) [1222 attP]
- activity [10]: 0.58 % GFP+

B1: 27 attP (dsDNA)
DNA 1: GGTGCTGGGTTGTTGTCTCTGGACAGTGATCCATGGGAAACTACTCAGCACC
DNA 2: GGTGCTGAGTAGTTTCCCATGGATCACTGTCCAGAGACAACAACCCAGCACC
- activity [11]: 0.17 % GFP+

B2: 165 attP (dsDNA)
DNA 1: TAGTTTCCAATGTTACAGGAACTGCTGGCAGAATCCAACACATTGGAAGTCG
DNA 2: CGACTTCCAATGTGTTGGATTCTGCCAGCAGTTCCTGTAACATTGGAAACTA
- activity [12]: 0.57 % GFP+

B3: 1221 attP (dsDNA)
DNA 1: GTTTAGTATCTCGTTATCTCTCGTTGGAGGGAGAAGAAACGGGATACCAAAA
DNA 2: TTTTGGTATCCCGTTTCTTCTCCCTCCAACGAGAGATAACGAGATACTAAAC
- activity [13]: 0.22 % GFP+

Reference: US20260055430, “[…] WITH ALTERED […] ACTIVITY” (Flagship Pioneering Innovations VI, LLC, published 2026)
